Article PMC9482650, “Quantitative fragmentomics allow affinity mapping of interactomes” (Nature Communications, 2022)

What was measured:
Assay in all cases: holdup assay
Parameters in all cases: key: below the threshold = too weak to quantify, mostly under pKd 3.1 to 4
[1] = target: T1, APBA1_1, Q02410
T1 sequence (Q02410 651-752, limits assumed, looked up): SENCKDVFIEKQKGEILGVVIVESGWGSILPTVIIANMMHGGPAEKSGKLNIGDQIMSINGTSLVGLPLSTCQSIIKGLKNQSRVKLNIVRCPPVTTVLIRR

[2] = target: T2, APBA1_2, Q02410
T2 sequence (Q02410 742-832, limits assumed, looked up): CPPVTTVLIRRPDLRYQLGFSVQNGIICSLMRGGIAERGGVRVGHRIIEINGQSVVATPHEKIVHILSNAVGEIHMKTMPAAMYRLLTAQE

[3] = target: DLG2_2, Q15700
[4] = target: FRMPD2_1, Q68DX3
[5] = target: GIPC2, Q8TF65
[6] = target: GRID2IP_1, A4D2P6
[7] = target: GRID2IP_2, A4D2P6
[8] = target: T3, GRIP1_3, Q9Y3R0
T3 sequence (Q9Y3R0 247-346, limits assumed, looked up): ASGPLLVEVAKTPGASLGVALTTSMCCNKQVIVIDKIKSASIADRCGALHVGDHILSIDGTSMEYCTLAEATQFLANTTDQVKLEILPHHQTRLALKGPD

[9] = target: T4, GRIP1_7, Q9Y3R0
T4 sequence (Q9Y3R0 999-1096, limits assumed, looked up): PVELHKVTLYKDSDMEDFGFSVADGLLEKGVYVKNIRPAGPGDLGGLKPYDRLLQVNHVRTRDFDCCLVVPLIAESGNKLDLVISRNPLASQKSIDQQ

[10] = target: T5, HTRA3, P83110
T5 sequence (P83110 354-453, limits assumed, looked up): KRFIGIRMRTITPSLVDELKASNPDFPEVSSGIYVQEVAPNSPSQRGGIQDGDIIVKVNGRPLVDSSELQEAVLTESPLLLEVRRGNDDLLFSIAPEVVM

[11] = target: Inadl_1, Q8NI35
[12] = target: T6, LNX2_3, Q8N448
T6 sequence (Q8N448 463-564, limits assumed, looked up): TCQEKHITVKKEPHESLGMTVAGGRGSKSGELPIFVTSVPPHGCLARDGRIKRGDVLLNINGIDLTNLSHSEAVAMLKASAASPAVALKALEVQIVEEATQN

[13] = target: MAGI3_2, Q5TCQ9
[14] = target: MAST1, Q9Y2H9
[15] = target: T7, MPDZ_10, O75970
T7 sequence (O75970 1624-1722, limits assumed, looked up): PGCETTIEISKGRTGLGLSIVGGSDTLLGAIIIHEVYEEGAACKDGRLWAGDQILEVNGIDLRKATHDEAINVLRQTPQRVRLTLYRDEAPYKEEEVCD

[16] = target: T8, MPP7, Q5T2T1
T8 sequence (Q5T2T1 134-230, limits assumed, looked up): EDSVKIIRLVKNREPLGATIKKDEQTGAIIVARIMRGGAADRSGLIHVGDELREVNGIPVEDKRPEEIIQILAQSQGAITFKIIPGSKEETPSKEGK

[17] = target: NHERF4_4, Q86UT5
[18] = target: PARD3_3, Q8TEW0
[19] = target: T9, PDZD7_3, Q9H5P4
T9 sequence (Q9H5P4 857-944, limits assumed, looked up): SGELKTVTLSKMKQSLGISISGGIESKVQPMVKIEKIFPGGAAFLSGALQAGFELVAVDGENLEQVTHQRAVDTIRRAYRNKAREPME

[20] = target: T10, SHANK1, Q9Y566
T10 sequence (Q9Y566 658-767, limits assumed, looked up): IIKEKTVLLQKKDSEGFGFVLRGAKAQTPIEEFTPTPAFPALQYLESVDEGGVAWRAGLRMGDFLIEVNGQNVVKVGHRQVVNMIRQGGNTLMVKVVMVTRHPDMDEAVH

[21] = target: T11, SNTB1, Q13884
T11 sequence (Q13884 107-205, limits assumed, looked up): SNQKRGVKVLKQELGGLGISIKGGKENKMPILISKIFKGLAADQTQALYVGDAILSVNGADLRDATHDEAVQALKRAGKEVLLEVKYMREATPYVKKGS

[22] = target: T12, SYNJ2BP, P57105
T12 sequence (P57105 8-110, limits assumed, looked up): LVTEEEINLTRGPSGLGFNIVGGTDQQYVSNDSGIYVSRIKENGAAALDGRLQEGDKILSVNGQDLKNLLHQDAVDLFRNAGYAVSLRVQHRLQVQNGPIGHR

[23] = target: T13, TX1BP3, O14907
T13 sequence (O14907 10-122, limits assumed, looked up): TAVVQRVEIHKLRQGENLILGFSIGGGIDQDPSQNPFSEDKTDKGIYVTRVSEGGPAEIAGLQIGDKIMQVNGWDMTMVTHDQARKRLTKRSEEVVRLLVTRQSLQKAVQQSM

[24] = plain residues with an end cap or a label only (N-terminal biotin on a linker: ado-ado)
[25] = modified: phospho on T at position -1 from the C-terminal residue
[26] = modified: phospho on T at position -2 from the C-terminal residue

Sequence of FRMPD2_1, Q68DX3 (Q68DX3 770-861): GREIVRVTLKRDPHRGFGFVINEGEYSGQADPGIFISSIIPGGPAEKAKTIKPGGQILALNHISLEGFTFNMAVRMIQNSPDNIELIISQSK
Sequence of MAST1, Q9Y2H9 (Q9Y2H9 962-1065): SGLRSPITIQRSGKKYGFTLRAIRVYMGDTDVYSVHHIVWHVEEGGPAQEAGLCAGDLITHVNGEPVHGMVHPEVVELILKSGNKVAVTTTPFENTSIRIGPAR
Sequence of GIPC2, Q8TF65 (Q8TF65 112-203): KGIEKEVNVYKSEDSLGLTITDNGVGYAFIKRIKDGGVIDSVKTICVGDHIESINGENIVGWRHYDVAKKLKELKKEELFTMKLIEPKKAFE
Sequence of GRID2IP_2, A4D2P6 (A4D2P6 272-370): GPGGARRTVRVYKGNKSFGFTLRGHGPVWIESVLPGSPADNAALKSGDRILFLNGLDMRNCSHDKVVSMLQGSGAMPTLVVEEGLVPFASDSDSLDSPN
Sequence of GRID2IP_1, A4D2P6 (A4D2P6 1-87): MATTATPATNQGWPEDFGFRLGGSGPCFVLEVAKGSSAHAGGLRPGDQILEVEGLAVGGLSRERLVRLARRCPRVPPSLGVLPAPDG
Sequence of DLG2_2, Q15700 (Q15700 189-283): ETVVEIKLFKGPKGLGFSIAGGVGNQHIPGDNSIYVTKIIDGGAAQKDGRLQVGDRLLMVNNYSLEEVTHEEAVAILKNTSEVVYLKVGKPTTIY
Sequence of PARD3_3, Q8TEW0 (Q8TEW0 582-685): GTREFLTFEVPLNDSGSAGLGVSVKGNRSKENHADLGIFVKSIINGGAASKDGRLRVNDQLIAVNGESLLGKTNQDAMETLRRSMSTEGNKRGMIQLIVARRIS
Sequence of MAGI3_2, Q5TCQ9 (Q5TCQ9 398-503): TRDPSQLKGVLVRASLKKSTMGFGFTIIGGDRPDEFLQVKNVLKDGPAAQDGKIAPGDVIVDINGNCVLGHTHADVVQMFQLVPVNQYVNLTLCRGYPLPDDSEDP
Sequence of Inadl_1, Q8NI35 (Q8NI35 113-229): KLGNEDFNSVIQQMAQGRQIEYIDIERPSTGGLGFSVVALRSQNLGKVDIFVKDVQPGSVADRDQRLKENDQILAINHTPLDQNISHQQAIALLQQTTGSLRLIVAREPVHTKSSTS
Sequence of NHERF4_4, Q86UT5 (Q86UT5 464-550): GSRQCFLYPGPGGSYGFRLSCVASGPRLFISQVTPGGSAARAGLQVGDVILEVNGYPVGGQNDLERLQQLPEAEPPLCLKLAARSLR

GQSVDLVFPV [AKIP1, Q9NQ31]
pKd [1, 24]: below the threshold
pKd [2, 24]: 3.85
pKd [3, 24]: below the threshold
pKd [4, 24]: below the threshold
pKd [5, 24]: below the threshold
pKd [6, 24]: below the threshold
pKd [7, 24]: below the threshold
pKd [8, 24]: below the threshold
pKd [9, 24]: below the threshold
pKd [10, 24]: below the threshold
pKd [11, 24]: 3.5
pKd [12, 24]: below the threshold
pKd [13, 24]: below the threshold
pKd [14, 24]: 4.1
pKd [15, 24]: below the threshold
pKd [16, 24]: below the threshold
pKd [17, 24]: below the threshold
pKd [18, 24]: 3.66
pKd [19, 24]: below the threshold
pKd [20, 24]: below the threshold
pKd [21, 24]: below the threshold
pKd [22, 24]: below the threshold
pKd [23, 24]: below the threshold

RRVRKLPSTTL [RPS6KA1_-1P, Q15418]
pKd [1, 25]: 3.56
pKd [2, 25]: below the threshold
pKd [3, 25]: 3.83
pKd [4, 25]: 3.33
pKd [5, 25]: 3.55
pKd [6, 25]: below the threshold
pKd [7, 25]: 4.22
pKd [8, 25]: 3.34
pKd [9, 25]: 3.48
pKd [10, 25]: 3.34
pKd [11, 25]: 3.35
pKd [12, 25]: below the threshold
pKd [13, 25]: 3.94
pKd [14, 25]: 4.5
pKd [15, 25]: below the threshold
pKd [16, 25]: 3.35
pKd [17, 25]: below the threshold
pKd [18, 25]: 3.84
pKd [19, 25]: 4.91
pKd [20, 25]: 4.06
pKd [21, 25]: 3.91
pKd [22, 25]: 4.48
pKd [23, 25]: 3.87

RRVRKLPSTTL [RPS6KA1_-2P, Q15418]
pKd [1, 26]: below the threshold
pKd [2, 26]: below the threshold
pKd [3, 26]: below the threshold
pKd [4, 26]: below the threshold
pKd [5, 26]: below the threshold
pKd [6, 26]: below the threshold
pKd [7, 26]: below the threshold
pKd [8, 26]: below the threshold
pKd [9, 26]: 3.63
pKd [10, 26]: below the threshold
pKd [11, 26]: below the threshold
pKd [12, 26]: below the threshold
pKd [13, 26]: below the threshold
pKd [14, 26]: below the threshold
pKd [15, 26]: below the threshold
pKd [16, 26]: below the threshold
pKd [17, 26]: below the threshold
pKd [18, 26]: below the threshold
pKd [19, 26]: 3.5
pKd [20, 26]: below the threshold
pKd [21, 26]: below the threshold
pKd [22, 26]: below the threshold
pKd [23, 26]: below the threshold

SMLNRRTTPV [CACNG4, Q9UBN1]
pKd [1, 24]: below the threshold
pKd [2, 24]: 3.73
pKd [3, 24]: 4.51
pKd [4, 24]: 3.54
pKd [5, 24]: below the threshold
pKd [6, 24]: below the threshold
pKd [7, 24]: 3.92
pKd [8, 24]: below the threshold
pKd [9, 24]: below the threshold
pKd [10, 24]: below the threshold
pKd [11, 24]: below the threshold
pKd [12, 24]: below the threshold
pKd [13, 24]: 5.19
pKd [14, 24]: 4.29
pKd [15, 24]: 3.92
pKd [16, 24]: below the threshold
pKd [17, 24]: below the threshold
pKd [18, 24]: below the threshold
pKd [19, 24]: 4.07
pKd [20, 24]: below the threshold
pKd [21, 24]: 4.07
pKd [22, 24]: 5.12
pKd [23, 24]: 4.85

LSEFKAMDSF [CTNNA2, P26232]
pKd [1, 24]: below the threshold
pKd [2, 24]: below the threshold
pKd [3, 24]: below the threshold
pKd [4, 24]: below the threshold
pKd [5, 24]: below the threshold
pKd [6, 24]: below the threshold
pKd [7, 24]: below the threshold
pKd [8, 24]: below the threshold
pKd [9, 24]: below the threshold
pKd [10, 24]: below the threshold
pKd [11, 24]: below the threshold
pKd [12, 24]: below the threshold
pKd [13, 24]: below the threshold
pKd [14, 24]: below the threshold
pKd [15, 24]: below the threshold
pKd [16, 24]: below the threshold
pKd [17, 24]: below the threshold
pKd [18, 24]: below the threshold
pKd [19, 24]: below the threshold
pKd [20, 24]: below the threshold
pKd [21, 24]: below the threshold
pKd [22, 24]: below the threshold
pKd [23, 24]: below the threshold

EEDTAEKDEL [HSPA5, P11021]
pKd [1, 24]: below the threshold
pKd [2, 24]: below the threshold
pKd [3, 24]: below the threshold
pKd [4, 24]: below the threshold
pKd [5, 24]: 3.55
pKd [6, 24]: below the threshold
pKd [7, 24]: below the threshold
pKd [8, 24]: below the threshold
pKd [9, 24]: below the threshold
pKd [10, 24]: below the threshold
pKd [11, 24]: below the threshold
pKd [12, 24]: 3.53
pKd [13, 24]: 4.48
pKd [14, 24]: 3.98
pKd [15, 24]: below the threshold
pKd [16, 24]: below the threshold
pKd [17, 24]: below the threshold
pKd [18, 24]: below the threshold
pKd [19, 24]: below the threshold
pKd [20, 24]: below the threshold
pKd [21, 24]: below the threshold
pKd [22, 24]: 3.52
pKd [23, 24]: below the threshold
